# Test results taken from patent publication US20210388110A1 (published 2021).
# Biological target: T1, soluble human CD3ε chain (human, UniProt P07766 23-126, limits assumed)
# T1 construct: the text says soluble human CD3ε chain; also called human CD3 epsilon chain
# Test: SPR (Biacore)
# T1 sequence (P07766 23-126 limits assumed): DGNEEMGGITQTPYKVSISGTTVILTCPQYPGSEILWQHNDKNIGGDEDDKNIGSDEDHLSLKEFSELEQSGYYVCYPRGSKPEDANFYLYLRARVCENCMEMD
row,Kd [nM],Binder
1,5.06,"TR01H040-E22Hh/none-Hi-Kn010G3/L0224-k0 (antibody, human IgG1, kappa, L234A L235A, N297A, single-arm) heavy: QVQLVESGGGLVQPGRSLRLSCAASGFTFSNAWMHWVRQAPGKGLEWVAQIKDKSQNYATYYAESVKGRFTISRADSKNSIYLQMNSLKTEDTAVYYCRYVHYSASYGVDAWGQGTTVTVSSASTKGPSVFPLAPSSKSTSGGTAALGCLVKDYFPEPVTVSWNSGALTSGVHTFPAVLQSSGLYSLSSVVTVPSSSLGTQTYICNVNHKPSNTKVDKKVEPKSCDKTHTCPPCPAPEAAGGPSVFLFPPKPKDTLMISRTPEVTCVVVDVSHEDPEVKFNWYVDGVEVHNAKTKPREEQYASTYRVVSVLTVLHQDWLNGKEYKCKVSNKALPAPIEKTISKAKGQPREPQVYTLPPSRCELTKNQVSLSCAVKGFYPSDIAVEWESNGQPENNYKTTPPVLDSDGSFFLVSKLTVDKSRWQQGNVFSCSVMHEALHNHYTQKSLSLSPDYKDDDDK EPKSSDKTHTCPPCPAPELLGGPSVFLFPPKPKDTLMISRTPEVTCVVVDVSHEDPEVKFNWYVDGVEVHNAKTKPREEQYNSTYRVVSVLTVLHQDWLNGKEYKCKVSNKALPAPIEKTISKAKGQPREPQVCTLPPSRDELTKNQVSLWCLVKGFYPSDIAVEWESNGQPENNYKTTPPVLDSDGSFFLYSKLTVDKSRWQQGNVFSCSVMHEALHNRYTQKSLSLSP light: DIVMTQSPLSLPVTPGEPASISCRSSQSPVHSNRNTYIHWYQQKPGQAPRLLIYKVSNRFPGVPDRFSGSGSGTDFTLKISRVEAEDVGVYYCYQGTQVPYTFGQGTKLEIKRTVAAPSVFIFPPSDEQLKSGTASVVCLLNNFYPREAKVQWKVDNALQSGNSQESVTEQDSKDSTYSLSSTLTLSKADYEKHKVYACEVTHQGLSSPVTKSFNRGEC"
2,38.6,"TR01H040-E22Hh/none-Hi-Kn010G3/L0232-k0 (antibody, human IgG1, kappa, L234A L235A, N297A, single-arm) heavy: QVQLVESGGGLVQPGRSLRLSCAASGFTFSNAWMHWVRQAPGKGLEWVAQIKDKSQNYATYYAESVKGRFTISRADSKNSIYLQMNSLKTEDTAVYYCRYVHYSASYGVDAWGQGTTVTVSSASTKGPSVFPLAPSSKSTSGGTAALGCLVKDYFPEPVTVSWNSGALTSGVHTFPAVLQSSGLYSLSSVVTVPSSSLGTQTYICNVNHKPSNTKVDKKVEPKSCDKTHTCPPCPAPEAAGGPSVFLFPPKPKDTLMISRTPEVTCVVVDVSHEDPEVKFNWYVDGVEVHNAKTKPREEQYASTYRVVSVLTVLHQDWLNGKEYKCKVSNKALPAPIEKTISKAKGQPREPQVYTLPPSRCELTKNQVSLSCAVKGFYPSDIAVEWESNGQPENNYKTTPPVLDSDGSFFLVSKLTVDKSRWQQGNVFSCSVMHEALHNHYTQKSLSLSPDYKDDDDK EPKSSDKTHTCPPCPAPELLGGPSVFLFPPKPKDTLMISRTPEVTCVVVDVSHEDPEVKFNWYVDGVEVHNAKTKPREEQYNSTYRVVSVLTVLHQDWLNGKEYKCKVSNKALPAPIEKTISKAKGQPREPQVCTLPPSRDELTKNQVSLWCLVKGFYPSDIAVEWESNGQPENNYKTTPPVLDSDGSFFLYSKLTVDKSRWQQGNVFSCSVMHEALHNRYTQKSLSLSP light: DIVMTQSPLSLPVTPGEPASISCRSSESLVHSNRNTYLHWYQQKPGQAPRLLIYKVSNRFSGVPDRFSGSGSGTDFTLKISRVEAEDVGVYYCGQGTQVPYTFGQGTKLEIKRTVAAPSVFIFPPSDEQLKSGTASVVCLLNNFYPREAKVQWKVDNALQSGNSQESVTEQDSKDSTYSLSSTLTLSKADYEKHKVYACEVTHQGLSSPVTKSFNRGEC"
3,16,"TR01H040-E22Hh/none-Hi-Kn010G3/L0228-k0 (antibody, human IgG1, kappa, L234A L235A, N297A, single-arm) heavy: QVQLVESGGGLVQPGRSLRLSCAASGFTFSNAWMHWVRQAPGKGLEWVAQIKDKSQNYATYYAESVKGRFTISRADSKNSIYLQMNSLKTEDTAVYYCRYVHYSASYGVDAWGQGTTVTVSSASTKGPSVFPLAPSSKSTSGGTAALGCLVKDYFPEPVTVSWNSGALTSGVHTFPAVLQSSGLYSLSSVVTVPSSSLGTQTYICNVNHKPSNTKVDKKVEPKSCDKTHTCPPCPAPEAAGGPSVFLFPPKPKDTLMISRTPEVTCVVVDVSHEDPEVKFNWYVDGVEVHNAKTKPREEQYASTYRVVSVLTVLHQDWLNGKEYKCKVSNKALPAPIEKTISKAKGQPREPQVYTLPPSRCELTKNQVSLSCAVKGFYPSDIAVEWESNGQPENNYKTTPPVLDSDGSFFLVSKLTVDKSRWQQGNVFSCSVMHEALHNHYTQKSLSLSPDYKDDDDK EPKSSDKTHTCPPCPAPELLGGPSVFLFPPKPKDTLMISRTPEVTCVVVDVSHEDPEVKFNWYVDGVEVHNAKTKPREEQYNSTYRVVSVLTVLHQDWLNGKEYKCKVSNKALPAPIEKTISKAKGQPREPQVCTLPPSRDELTKNQVSLWCLVKGFYPSDIAVEWESNGQPENNYKTTPPVLDSDGSFFLYSKLTVDKSRWQQGNVFSCSVMHEALHNRYTQKSLSLSP light: DIVMTQSPLSLPVTPGEPASISCRSSQSPVHSNRNTYIHWYQQKPGQAPRLLIYKVSNRFSGVPDRFSGSGSGTDFTLKISRVEAEDVGVYYCVQGTQVPYTFGQGTKLEIKRTVAAPSVFIFPPSDEQLKSGTASVVCLLNNFYPREAKVQWKVDNALQSGNSQESVTEQDSKDSTYSLSSTLTLSKADYEKHKVYACEVTHQGLSSPVTKSFNRGEC"
4,24,"TR01H040-E22Hh/none-Hi-Kn010G3/L0234-k0 (antibody, human IgG1, kappa, L234A L235A, N297A, single-arm) heavy: QVQLVESGGGLVQPGRSLRLSCAASGFTFSNAWMHWVRQAPGKGLEWVAQIKDKSQNYATYYAESVKGRFTISRADSKNSIYLQMNSLKTEDTAVYYCRYVHYSASYGVDAWGQGTTVTVSSASTKGPSVFPLAPSSKSTSGGTAALGCLVKDYFPEPVTVSWNSGALTSGVHTFPAVLQSSGLYSLSSVVTVPSSSLGTQTYICNVNHKPSNTKVDKKVEPKSCDKTHTCPPCPAPEAAGGPSVFLFPPKPKDTLMISRTPEVTCVVVDVSHEDPEVKFNWYVDGVEVHNAKTKPREEQYASTYRVVSVLTVLHQDWLNGKEYKCKVSNKALPAPIEKTISKAKGQPREPQVYTLPPSRCELTKNQVSLSCAVKGFYPSDIAVEWESNGQPENNYKTTPPVLDSDGSFFLVSKLTVDKSRWQQGNVFSCSVMHEALHNHYTQKSLSLSPDYKDDDDK EPKSSDKTHTCPPCPAPELLGGPSVFLFPPKPKDTLMISRTPEVTCVVVDVSHEDPEVKFNWYVDGVEVHNAKTKPREEQYNSTYRVVSVLTVLHQDWLNGKEYKCKVSNKALPAPIEKTISKAKGQPREPQVCTLPPSRDELTKNQVSLWCLVKGFYPSDIAVEWESNGQPENNYKTTPPVLDSDGSFFLYSKLTVDKSRWQQGNVFSCSVMHEALHNRYTQKSLSLSP light: DIVMTQSPLSLPVTPGEPASISCRSSQEPVHSNRNTYLHWYQQKPGQAPRLLIYKVSNRFRGVPDRFSGSGSGTDFTLKISRVEAEDVGVYYCGQGTQVPYTFGQGTKLEIKRTVAAPSVFIFPPSDEQLKSGTASVVCLLNNFYPREAKVQWKVDNALQSGNSQESVTEQDSKDSTYSLSSTLTLSKADYEKHKVYACEVTHQGLSSPVTKSFNRGEC"
5,7.75,"TR01H040-E22Hh/none-Hi-Kn010G3/L0231-k0 (antibody, human IgG1, kappa, L234A L235A, N297A, single-arm) heavy: QVQLVESGGGLVQPGRSLRLSCAASGFTFSNAWMHWVRQAPGKGLEWVAQIKDKSQNYATYYAESVKGRFTISRADSKNSIYLQMNSLKTEDTAVYYCRYVHYSASYGVDAWGQGTTVTVSSASTKGPSVFPLAPSSKSTSGGTAALGCLVKDYFPEPVTVSWNSGALTSGVHTFPAVLQSSGLYSLSSVVTVPSSSLGTQTYICNVNHKPSNTKVDKKVEPKSCDKTHTCPPCPAPEAAGGPSVFLFPPKPKDTLMISRTPEVTCVVVDVSHEDPEVKFNWYVDGVEVHNAKTKPREEQYASTYRVVSVLTVLHQDWLNGKEYKCKVSNKALPAPIEKTISKAKGQPREPQVYTLPPSRCELTKNQVSLSCAVKGFYPSDIAVEWESNGQPENNYKTTPPVLDSDGSFFLVSKLTVDKSRWQQGNVFSCSVMHEALHNHYTQKSLSLSPDYKDDDDK EPKSSDKTHTCPPCPAPELLGGPSVFLFPPKPKDTLMISRTPEVTCVVVDVSHEDPEVKFNWYVDGVEVHNAKTKPREEQYNSTYRVVSVLTVLHQDWLNGKEYKCKVSNKALPAPIEKTISKAKGQPREPQVCTLPPSRDELTKNQVSLWCLVKGFYPSDIAVEWESNGQPENNYKTTPPVLDSDGSFFLYSKLTVDKSRWQQGNVFSCSVMHEALHNRYTQKSLSLSP light: DIVMTQSPLSLPVTPGEPASISCRSSQSPVHSNRNTYIHWYQQKPGQAPRLLIYKVSNRFSGVPDRFSGSGSGTDFTLKISRVEAEDVGVYYCYQGTQWPYTFGQGTKLEIKRTVAAPSVFIFPPSDEQLKSGTASVVCLLNNFYPREAKVQWKVDNALQSGNSQESVTEQDSKDSTYSLSSTLTLSKADYEKHKVYACEVTHQGLSSPVTKSFNRGEC"
6,40.1,"TR01H040-E22Hh/none-Hi-Kn010G3/L0233-k0 (antibody, human IgG1, kappa, L234A L235A, N297A, single-arm) heavy: QVQLVESGGGLVQPGRSLRLSCAASGFTFSNAWMHWVRQAPGKGLEWVAQIKDKSQNYATYYAESVKGRFTISRADSKNSIYLQMNSLKTEDTAVYYCRYVHYSASYGVDAWGQGTTVTVSSASTKGPSVFPLAPSSKSTSGGTAALGCLVKDYFPEPVTVSWNSGALTSGVHTFPAVLQSSGLYSLSSVVTVPSSSLGTQTYICNVNHKPSNTKVDKKVEPKSCDKTHTCPPCPAPEAAGGPSVFLFPPKPKDTLMISRTPEVTCVVVDVSHEDPEVKFNWYVDGVEVHNAKTKPREEQYASTYRVVSVLTVLHQDWLNGKEYKCKVSNKALPAPIEKTISKAKGQPREPQVYTLPPSRCELTKNQVSLSCAVKGFYPSDIAVEWESNGQPENNYKTTPPVLDSDGSFFLVSKLTVDKSRWQQGNVFSCSVMHEALHNHYTQKSLSLSPDYKDDDDK EPKSSDKTHTCPPCPAPELLGGPSVFLFPPKPKDTLMISRTPEVTCVVVDVSHEDPEVKFNWYVDGVEVHNAKTKPREEQYNSTYRVVSVLTVLHQDWLNGKEYKCKVSNKALPAPIEKTISKAKGQPREPQVCTLPPSRDELTKNQVSLWCLVKGFYPSDIAVEWESNGQPENNYKTTPPVLDSDGSFFLYSKLTVDKSRWQQGNVFSCSVMHEALHNRYTQKSLSLSP light: DIVMTQSPLSLPVTPGEPASISCRSSQELVHSNRNTYLHWYQQKPGQAPRLLIYKVSNRFSGVPDRFSGSGSGTDFTLKISRVEAEDVGVYYCGQGTQVPYTFGQGTKLEIKRTVAAPSVFIFPPSDEQLKSGTASVVCLLNNFYPREAKVQWKVDNALQSGNSQESVTEQDSKDSTYSLSSTLTLSKADYEKHKVYACEVTHQGLSSPVTKSFNRGEC"
